Data published in US20250136677A1 (ZOETIS SERVICES, published 2025).
Substitutions are numbered along the chain they refer to.

Key:
[1] = molecular target: T1, mutant feline IL-31 15H05 protein (Feline_IL31_15H05_mutant) (feline); experiment: indirect ELISA, IL-31 protein coated
T1 sequence: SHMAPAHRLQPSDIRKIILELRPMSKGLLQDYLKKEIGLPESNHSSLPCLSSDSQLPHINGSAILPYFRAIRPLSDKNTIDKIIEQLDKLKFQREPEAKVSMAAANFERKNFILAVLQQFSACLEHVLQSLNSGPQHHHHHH

[2] = molecular target: T2, equine IL-31 protein (Equine_IL31) (equine); experiment: SPR (Biacore), IL-31 surface, single antibody concentration
T2 construct: Recombinant equine IL-31
T2 chain: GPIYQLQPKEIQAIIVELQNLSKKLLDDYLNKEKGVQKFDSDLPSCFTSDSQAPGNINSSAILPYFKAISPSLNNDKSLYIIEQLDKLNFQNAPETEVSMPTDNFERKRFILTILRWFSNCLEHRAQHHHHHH
Protocol: (§1) For the indirect ELISA method, antibody binding to wildtype and feline IL-31 15H05 mutant proteins was assessed. All nine canine monoclonal antibodies (ZIL1, ZIL8, ZIL8, ZIL11, ZIL69, ZIL94, ZIL154, ZIL159, and ZIL171) were capable of binding to wildtype feline IL-31 and binding was impacted by mutations in the mAb 15H05 epitope region confirming the correct binding phenotype determined during the initial screening used to identify them. In comparison, the 11E12 antibody bound to the wild-type feline IL-31 and its binding was not impacted by the mutations in the 15H05 epitope region as evidenced by the data in FIG. 4. To confirm binding, biacore analysis was performed using canine, feline, equine, human, feline 15H05 mutant, and feline 11E12 mutant IL-31 proteins as surfaces and a single test concentration of antibody. Similar to ELISA observations, all antibodies tested bound to wildtype feline IL-31. In agreement with the data described above in this section, mouse antibodies 11E12 and 15H05 both bound to canine and feline IL-31 surfaces. Three additional antibodies where shown to have this dual binding property, ZIL69 (partial canine binding), ZIL94, and ZIL159. From this group of nine fully canine antibodies, only ZIL1 and ZIL9 cross-reacted with equine IL-31. Of note, antibody 15H05 was the only one of all assayed herein that bound to canine, feline, and equine IL-31 indicating some level of epitope conservation across the three species. In contrast, none of the antibodies described herein bound to human IL-31. Additional biacore surfaces were used to verify ELISA observations showing differential binding of antibodies to wildtype feline IL-31 and two proteins with mutations in the 15H05 (15H05 mutant) or 11E12 (11E12 mutant) epitopes.

human IL-31 = molecular target: T3, human IL-31 (human, UniProt Q6EBC2 24-164); experiment: as above
T3 sequence: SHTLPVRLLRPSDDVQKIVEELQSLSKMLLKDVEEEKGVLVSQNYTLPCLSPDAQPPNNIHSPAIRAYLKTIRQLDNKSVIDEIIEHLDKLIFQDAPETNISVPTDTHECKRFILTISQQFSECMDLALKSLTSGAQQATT
Protocol: as §1

[3] = molecular target: T4, canine IL-31 protein (Canine_IL31) (canine); experiment: cell-based or functional assay
T4 chain: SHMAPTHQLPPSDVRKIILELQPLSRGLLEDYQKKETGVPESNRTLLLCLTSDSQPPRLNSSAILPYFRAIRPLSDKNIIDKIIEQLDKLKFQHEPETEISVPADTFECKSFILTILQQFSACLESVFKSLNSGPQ

[4] = molecular target: T5, wildtype feline IL-31 protein (Feline_IL31_wildtype) (feline); experiment: cell-based or functional assay
T5 chain: T1 sequence with A103P, A105D

[5] = molecular target: T5, wildtype feline IL-31 protein …; experiment: SPR (Biacore), IL-31 on chip, 1:1 fit
Protocol: The affinity with which candidate mAbs bind canine and feline IL-31 was determined using surface plasmon resonance (SPR) on a Biacore system (Biocore Life Sciences (GE Healthcare), Uppsala, Sweden). To avoid affinity differences associated with differential surface preparation that can occur when immobilizing antibodies to surfaces; a strategy was employed where IL-31 was directly conjugated to the surface. Immobilization was obtained by amine coupling 5 μg/mL IL-31 using N-hydroxysuccinimide (NHS)/1-Ethyl-3-(3-dimethylaminopropyl) carbodiimide (EDC) chemistry. Chips were quenched with ethanolamine and the affinity with which all candidate mAbs bound to the immobilized IL-31 was evaluated. All curves were fit to a 1:1 model. […] Results for affinity measurements are described herein.

[6] = molecular target: T5, wildtype feline IL-31 protein …; experiment: cell-based or functional assay
[7] = molecular target: T4, canine IL-31 protein (Canine_IL31); experiment: SPR (Biacore), IL-31 on chip, 1:1 fit

B1: ZIL9 (recombinant fully canine antibody) (antibody, V domains shown)
VH: EVQLVESGGDLVKPPGSLRLSCVASGFTFSSYDMTWVRQAPGKGLQWVADVNSGGTGTAYAVAVKGRFTISRDNAKKTLYLQMNSLRAEDTAVYYCAKLGVRDGLSVWGQGTLVTVSS
VL: SSVLTQPPSVSVSLGQTATISCSGESLNEYYTQWFQQKAGQAPVLVIYRDTERPSGIPDRFSGSSSGNTHTLTISGARAEDEADYYCESAVDTGTLVFGGGTHLAVLR
- ELISA OD [1]: 0.73 OD

B2: ZIL11 (recombinant fully canine antibody) (antibody, V domains shown)
VH: EVQLVESGGDLVKPAGSLRLSCVASGFTFRTYVMNWVRQAPGKGLQWVASINGGGSSPTYADAVRGRFTVSRDNAQNSLFLQMNSLRAEDTAVYFCVVSMVGPFDYWGQGTLVTVSS
VL: SSVLTQPPSVSVSLGQTATISCSGESLSNYYAQWFQQKAGQAPVLVIYKDTERPSGIPDRFSGSSSGNTHTLTISGARAEDEADYYCESAVSSDTIVFGGGTHLTVL
notes: also called CAN-ZIL11; copies: 2 + 2
- ELISA OD [1]: 0.33 OD
- binding result [2]: no binding
- binding result (human IL-31): no binding

B3: ZIL1 (recombinant fully canine antibody) (antibody, V domains shown)
VH: EVQLVESGGDLVKPGGSLRLSCVASGFTFSSYGMSWVRQAPGKGLQWVAHINSGGSSTYYADAVKGRFTISRDNAKNTLYLQMNSLRAEDTAVYYCVEVYTTLAAFWTDNFDYWGQGTLVTVSS
VL: QSVLTQPTSVSGSLGQRVTISCSGSTNNIGILAATWYQQLPGKAPKVLVYSDGNRPSGVPDRFSGSKSGNSATLTITGLQAEDEADYYCQSFDTTLDAYVFGSGTQLTVLR
- ELISA OD [1]: 0.92 OD

B4: ZTS-927 (antibody)
heavy: QVLLVQSGAEVRTPGASVKIFCKASGYSFTSYTIHWLRQAPAQGLEWMGNINPTSGYTENNQRFKDRLTLTADTSTNTAYMELSSLRSADTAMYYCARWGFKYDGEWSFDVWGAGTTVTVSSASTTAPSVFPLAPSCGTTSGATVALACLVLGYFPEPVTVSWNSGALTSGVHTFPAVLQASGLYSLSSMVTVPSSRWLSDTFTCNVAHPPSNTKVDKTVRKTDHPPGPKPCDCPKCPPPEMLGGPSIFIFPPKPKDTLSISRTPEVTCLVVDLGPDDSDVQITWFVDNTQVYTAKTSPREEQFNSTYRVVSVLPILHQDWLKGKEFKCKVNSKSLPSPIERTISKAKGQPHEPQVYVLPPAQEELSRNKVSVTCLIKSFHPPDIAVEWEITGQPEPENNYRTTPPQLDSDGTYFVYSKLSVDRSHWQRGNTYTCSVSHEALHSHHTQKSLTQSPGK
light: EIQMTQSPSSLSASPGDRVTITCRASQGISIWLSWYQQKPGNIPKVLINKASNLHIGVPSRFSGSGSGTDFTLTISSLEPEDAATYYCLQSQTYPLTFGGGTKLEIKRSDAQPSVFLFQPSLDELHTGSASIVCILNDFYPKEVNVKWKVDGVVQNKGIQESTTEQNSKDSTYSLSSTLTMSSTEYQSHEKFSCEVTHKSLASTLVKSFQRSECQRE
notes: Felinized 15H05 from a single GS plasmid
- IC50, inhibition of canine IL-31-induced STAT3 phosphorylation, canine DH82 cells [3]: 23.2 µg/mL
- IC50, inhibition of canine IL-31-induced STAT3 phosphorylation, feline FCWF4 cells [3]: 39.6 µg/mL
- IC50, inhibition of feline IL-31-induced STAT3 phosphorylation, canine DH82 cells [4]: 1.57 µg/mL
- IC50, inhibition of feline IL-31-induced STAT3 phosphorylation, feline FCWF4 cells [4]: 5.26 µg/mL
- Kd [5]: 0.614 nM
- koff [5]: 2.3e-05 s⁻¹
- kon [5]: 37400 M⁻¹ s⁻¹

B5: Feline 11E12 1.1 (antibody, V domains shown)
VH: QVLLVQSGAEVKKPGASVKIFCKASGYSFTYYDINWLRQAPEQGLEWMGWIFPGDGGTKYNETFKGRLTLTADTSTNTVYMELSSLRSADTAMYYCARGGTSVIRDAMDYWGQGALVTVSS
VL: EIQMTQSPSSLSASPGDRVTITCRASESVDNYGISFMHWYQQKPGKVPKLLIYRASNLESGVPSRFSGSGSGTDFTLTISSLEPEDAATYYCQQSNKDPLTFGQGT
notes: Variable chains were subcloned into plasmids with 'the respective feline heavy or kappa constant region'; Made in HEK 293 cells; also called Felinized 11E12 1.1; felinized 11E12
- potency against feline IL-31 in the feline FCWF assay (pSTAT3) [6]: ~2 fold
- koff [7]: 0.000141 s⁻¹
- kon [7]: 185000 M⁻¹ s⁻¹
- Kd [5]: 22.2 nM
- koff [5]: 0.000444 s⁻¹
- kon [5]: 20000 M⁻¹ s⁻¹

B6: ZIL69 (recombinant fully canine antibody) (antibody, V domains shown)
VH: EVQLVESGGDLVKPAGSLRLSCVASGFTFSSYAMKWVRQAPGKGLQWVATINNDGTRTGYADAVRGRFTISKDNAKNTLYLQMDSLRADDTAVYYCTKGNAESGCTGDHCPPYWGQGTLVTVSS
VL: SSVLTQPPSVSVSLGQTATISCSGESLNKYYAQWFQQKAGQAPVLVIYKDTERPSGIPDRFSGSSAGNTHTLTISGARAEDEADYYCESAVSSETNVFGSGTQLTVLR
notes: also called CAN-ZIL69
- ELISA OD [1]: 0.92 OD
- binding result [2]: no binding

B7: mouse:feline 15H05 chimera (antibody)
heavy: QVQLQQSAAELARPGASVKMSCKTSGYTFTSYTIHWIKQRPGQGLEWIGNINPTSGYTENNQRFKDKTTLTVDRSSNTAYLQLHSLTSEDSAVYFCARWGFKYDGEWSFDVWGAGTTVTVSSASTTAPSVFPLAPSCGTTSGATVALACLVLGYFPEPVTVSWNSGALTSGVHTFPAVLQASGLYSLSSMVTVPSSRWLSDTFTCNVAHPPSNTKVDKTVRKTDHPPGPKPCDCPKCPPPEAAGAPSIFIFPPKPKDTLSISRTPEVTCLVVDLGPDDSDVQITWFVDNTQVYTAKTSPREEQFNSTYRVVSVLPILHQDWLKGKEFKCKVNSKSLPSPIERTISKAKGQPHEPQVYVLPPAQEELSRNKVSVTCLIKSFHPPDIAVEWEITGQPEPENNYRTTPPQLDSDGTYFVYSKLSVDRSHWQRGNTYTCSVSHEALHSHHTQKSLTQSPGK
light: DIQMNQSPSSLSASLGDTITVTCRASQGISIWLSWYQQKPGNIPKVLINKASNLHIGVPPRFSGSGSGTHFTLTITSLQPEDIATYYCLQSQTYPLTFGGGTKLEINRSDAQPSVFLFQPSLDELHTGSASIVCILNDFYPKEVNVKWKVDGVVQNKGIQESTTEQNSKDSTYSLSSTLTMSSTEYQSHEKFSCEVTHKSLASTLVKSFQRSECQRE
notes: Mouse variable regions on feline IgG constant regions; made in HEK 293 cells; also called 15H05 mouse feline chimera
- IC50 against feline IL-31 induced pSTAT3 signaling in feline FCWF4 cells, relative to the mouse:feline 11E12 chimera [6]: ~2 fold
- IC50 against canine IL-31 (pSTAT3; cell type not stated for this pair of values) [3]: 28.6 µg/ml
- IC50, inhibition of feline IL-31-induced STAT3 phosphorylation, canine DH82 cells [4]: 5.59 µg/mL
- IC50, inhibition of feline IL-31-induced STAT3 phosphorylation, feline FCWF4 cells [4]: 3.25 µg/mL
- Kd [7]: 0.0129 nM
- koff [7]: 1.62e-07 s⁻¹
- kon [7]: 12600 M⁻¹ s⁻¹

B8: ZIL8 (recombinant fully canine antibody) (antibody, V domains shown)
VH: EVQLVESGGDLVKPAGSLRLSCVASGFTFSDYAMSWVRQAPGRGLQWVAGIDSVGSGTSYADAVKGRFTISRDDAKNTLYLQMFNLRAEDTAIYYCASGFPGSFEHWGQGTLVTVSS
VL: QSVLTQPASVSGSLGQKVTISCTGSSSNIGSGYVGWYQQLPGTGPRTLIYYNSDRPSGVPDRFSGSRSGTTATLTISGLQAEDEADYYCSVYDRTFNAVFGGGTHLTVL
notes: also called CAN-ZIL8; copies: 2 + 2
- binding result [2]: no binding
- binding result (human IL-31): no binding
